These results are taken from patent publication US20040175720A1 (NEW YORK UNIVERSITY, published 2004).

This test addresses T1, B42-NIF-1 (full-length), B42 activation domain fusion expressed from pJG4-5 in yeast (human, UniProt Q9H4Z2 1-1342).
T1 construct: also called NIF-1 expressed as a B42-fusion
T1 sequence: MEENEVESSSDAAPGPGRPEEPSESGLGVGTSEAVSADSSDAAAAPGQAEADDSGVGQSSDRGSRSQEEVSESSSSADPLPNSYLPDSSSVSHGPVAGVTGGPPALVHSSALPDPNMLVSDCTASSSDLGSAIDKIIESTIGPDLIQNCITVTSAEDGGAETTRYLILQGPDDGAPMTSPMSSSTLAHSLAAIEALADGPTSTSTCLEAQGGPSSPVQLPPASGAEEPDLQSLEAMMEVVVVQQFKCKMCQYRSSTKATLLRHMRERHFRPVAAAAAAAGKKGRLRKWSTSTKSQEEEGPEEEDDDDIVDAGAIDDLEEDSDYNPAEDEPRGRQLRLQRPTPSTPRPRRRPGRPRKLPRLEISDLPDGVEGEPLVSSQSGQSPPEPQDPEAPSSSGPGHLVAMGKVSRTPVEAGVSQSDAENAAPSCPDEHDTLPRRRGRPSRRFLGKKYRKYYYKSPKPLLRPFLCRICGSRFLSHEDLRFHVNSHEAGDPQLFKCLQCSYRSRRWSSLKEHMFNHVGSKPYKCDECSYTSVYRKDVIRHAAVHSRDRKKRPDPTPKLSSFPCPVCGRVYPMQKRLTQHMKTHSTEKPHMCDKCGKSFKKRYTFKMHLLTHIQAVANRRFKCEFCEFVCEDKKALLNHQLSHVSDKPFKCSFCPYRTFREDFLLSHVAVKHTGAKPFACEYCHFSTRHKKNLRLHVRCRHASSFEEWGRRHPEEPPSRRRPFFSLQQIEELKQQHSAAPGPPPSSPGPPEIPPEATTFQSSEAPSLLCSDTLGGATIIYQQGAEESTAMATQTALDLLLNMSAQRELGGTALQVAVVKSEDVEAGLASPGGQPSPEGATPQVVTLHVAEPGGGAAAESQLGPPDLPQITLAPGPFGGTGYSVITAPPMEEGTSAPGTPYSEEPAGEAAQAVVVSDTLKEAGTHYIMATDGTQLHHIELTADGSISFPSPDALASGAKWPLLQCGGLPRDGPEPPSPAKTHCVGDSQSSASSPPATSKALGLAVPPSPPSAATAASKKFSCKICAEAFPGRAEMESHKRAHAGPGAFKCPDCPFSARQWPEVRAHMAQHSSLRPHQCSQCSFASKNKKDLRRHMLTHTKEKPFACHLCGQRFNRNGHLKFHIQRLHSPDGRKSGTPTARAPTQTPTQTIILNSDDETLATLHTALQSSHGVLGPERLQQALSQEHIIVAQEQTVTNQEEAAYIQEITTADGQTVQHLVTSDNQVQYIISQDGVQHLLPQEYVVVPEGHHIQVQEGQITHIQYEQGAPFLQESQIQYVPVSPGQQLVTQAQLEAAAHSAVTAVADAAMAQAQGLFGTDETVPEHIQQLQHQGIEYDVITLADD
Description: yeast two-hybrid, B42-NIF-1 (full-length) against LexA full-length cTRα. Here is the method: To examine for this possibility, the interaction of B42-NIF-1 (full-length), conditionally expressed from pJG4-5, was studied with LexA fusions of nuclear receptor LBDs (cTRα, ERa, RXRα, GR, RARα, and PPARα) in yeast, as shown in FIG. 7. In addition, a LexA-fusion of full-length cTRα was also tested against B42-NIF-1 (full-length) and gave similar results as with the cTRα LBD. […] To document that the LexA-LBD fusions were expressed and responded to ligand in yeast, similar studies were carried out with B42-NRC.

B1: LexA-fusion of full-length cTRα (receptor, UniProt P0A7C2 1-202, looked up)
chain: MKALTARQQEVFDLIRDHISQTGMPPTRAEIAQRLGFRSPNAAEEHLKALARKGVIEIVSGASRGIRLLQEEEEGLPLVGRVAAGEPLLAQQHIEGHYQVDPSLFKPNADFLLRVSGMSMKDIGIMDGDLLAVHKTQDVRNGQVVVARIDDEVTVKRLKKQGNKVELLPENSEFKPIVVDLRQQSFTIEGLAVGVIRNGDWLMEQKPSTLDPLSEPEDTRWLDGKRKRKSSQCLVKSSMSGYIPSYLDKDEQCVVCGDKATGYHYRCITCEGCKGFFRRTIQKNLHPTYSCKYDGCCVIDKITRNQCQLCRFKKCISVGMAMDLVLDDSKRVAKRKLIEENRERRRKEEMIKSLQHRPSPSAEEWELIHVVTEAHRSTNAQGSHWKQKRKFLPEDIGQSPMASMPDGDKVDLEAFSEFTKIITPAITRVVDFAKKLPMFSELPCEDQIILLKGCCMEIMSLRAAVRYDPESETLTLSGEMAVKREQLKNGGLGVVSDAIFDLGKSLSAFNLDDTEVALLQAVLLMSSDRTGLICVDKIEKCQETYLLAFEHYINYRKHNIPHFWPKLLMKVTDLRMIGACHASRFLHMKVECPTELFPPLFLEVFEDQEV
notes: domain: LexA DBD;mature
Consider B1, for which the binding result is reported as “no binding”.
